Assay results: patent US20150374794A1 (Novo Nordisk, published 2015)
Numbered stars: 1 amine (or outer) side, 2 acyl side, 3 side chain; on linkers, the order of the positions; unused ones are H or OH. Square brackets hold non-standard residues; d marks the D form. Side chains are listed from the residue outwards. Ends that are not written are not given here. * marks the point of attachment. C18 diacid = O=C(O)CCCCCCCCCCCCCCCCC(=O)*; γGlu = O=C(O)[C@H](CCC(=O)[*:2])N[*:1]; AEEA = NCCOCCOCC(=O)O; Aib = CC(C)(N)C(=O)O

B1: N^ε29-[(4S)-4-carboxy-4-[[(4S)-4-carboxy-4-[[2-[2-[2-[[2-[2-[2-[[(4S)-4-carboxy-4-(17-carboxyheptadecanoylamino)butanoyl]amino]ethoxy]ethoxy]acetyl]amino]ethoxy … (peptide)
peptide: H[Aib]QGTFTSDLSKYLDKRRAEDFVQWLLSK([γGlu-γGlu-AEEA-AEEA-γGlu-C18 diacid])-NH2
modifications: N-terminus assumed
SMILES: CC(C)C[C@H](NC(=O)[C@H](CC(C)C)NC(=O)[C@H](Cc1c[nH]c2ccccc12)NC(=O)[C@H](CCC(N)=O)NC(=O)[C@@H](NC(=O)[C@H](Cc1ccccc1)NC(=O)[C@H](CC(=O)O)NC(=O)[C@H](CCC(=O)O)NC(=O)[C@H](C)NC(=O)[C@H](CCCNC(=N)N)NC(=O)[C@H](CCCNC(=N)N)NC(=O)[C@H](CCCCN)NC(=O)[C@H](CC(=O)O)NC(=O)[C@H](CC(C)C)NC(=O)[C@H](Cc1ccc(O)cc1)NC(=O)[C@H](CCCCN)NC(=O)[C@H](CO)NC(=O)[C@H](CC(C)C)NC(=O)[C@H](CC(=O)O)NC(=O)[C@H](CO)NC(=O)[C@@H](NC(=O)[C@H](Cc1ccccc1)NC(=O)[C@@H](NC(=O)CNC(=O)[C@H](CCC(N)=O)NC(=O)C(C)(C)NC(=O)[C@@H](N)Cc1c[nH]cn1)[C@@H](C)O)[C@@H](C)O)C(C)C)C(=O)N[C@@H](CO)C(=O)N[C@@H](CCCCNC(=O)CC[C@H](NC(=O)CC[C@H](NC(=O)COCCOCCNC(=O)COCCOCCNC(=O)CC[C@H](NC(=O)CCCCCCCCCCCCCCCCC(=O)O)C(=O)O)C(=O)O)C(=O)O)C(N)=O
B2: N^ε24-[(4S)-4-carboxy-4-[[(4S)-4-carboxy-4-[[2-[2-[2-[[2-[2-[2-[[(4S)-4-carboxy-4-(17-carboxyheptadecanoylamino)butanoyl]amino]ethoxy]ethoxy]acetyl]amino]ethoxy … (peptide)
peptide: H[Aib]QGTFTSDLSKYLDSRRARDFVK([γGlu-γGlu-AEEA-AEEA-γGlu-C18 diacid])WLLST-NH2
modifications: N-terminus assumed
SMILES: CC(C)C[C@H](NC(=O)[C@H](Cc1ccc(O)cc1)NC(=O)[C@H](CCCCN)NC(=O)[C@H](CO)NC(=O)[C@H](CC(C)C)NC(=O)[C@H](CC(=O)O)NC(=O)[C@H](CO)NC(=O)[C@@H](NC(=O)[C@H](Cc1ccccc1)NC(=O)[C@@H](NC(=O)CNC(=O)[C@H](CCC(N)=O)NC(=O)C(C)(C)NC(=O)[C@@H](N)Cc1c[nH]cn1)[C@@H](C)O)[C@@H](C)O)C(=O)N[C@@H](CC(=O)O)C(=O)N[C@@H](CO)C(=O)N[C@@H](CCCNC(=N)N)C(=O)N[C@@H](CCCNC(=N)N)C(=O)N[C@@H](C)C(=O)N[C@@H](CCCNC(=N)N)C(=O)N[C@@H](CC(=O)O)C(=O)N[C@@H](Cc1ccccc1)C(=O)N[C@H](C(=O)N[C@@H](CCCCNC(=O)CC[C@H](NC(=O)CC[C@H](NC(=O)COCCOCCNC(=O)COCCOCCNC(=O)CC[C@H](NC(=O)CCCCCCCCCCCCCCCCC(=O)O)C(=O)O)C(=O)O)C(=O)O)C(=O)N[C@@H](Cc1c[nH]c2ccccc12)C(=O)N[C@@H](CC(C)C)C(=O)N[C@@H](CC(C)C)C(=O)N[C@@H](CO)C(=O)N[C@H](C(N)=O)[C@@H](C)O)C(C)C
B3: N^ε29-[(4S)-4-carboxy-4-[[(4S)-4-carboxy-4-[[2-[2-[2-[[2-[2-[2-[[(4S)-4-carboxy-4-(17-carboxyheptadecanoylamino)butanoyl]amino]ethoxy]ethoxy]acetyl]amino]ethoxy … (peptide)
peptide: H[Aib]QGTFTSDLSKYLDTRRAQDFVRWLLSK([γGlu-γGlu-AEEA-AEEA-γGlu-C18 diacid])-NH2
modifications: N-terminus assumed
SMILES: CC(C)C[C@H](NC(=O)[C@H](CC(C)C)NC(=O)[C@H](Cc1c[nH]c2ccccc12)NC(=O)[C@H](CCCNC(=N)N)NC(=O)[C@@H](NC(=O)[C@H](Cc1ccccc1)NC(=O)[C@H](CC(=O)O)NC(=O)[C@H](CCC(N)=O)NC(=O)[C@H](C)NC(=O)[C@H](CCCNC(=N)N)NC(=O)[C@H](CCCNC(=N)N)NC(=O)[C@@H](NC(=O)[C@H](CC(=O)O)NC(=O)[C@H](CC(C)C)NC(=O)[C@H](Cc1ccc(O)cc1)NC(=O)[C@H](CCCCN)NC(=O)[C@H](CO)NC(=O)[C@H](CC(C)C)NC(=O)[C@H](CC(=O)O)NC(=O)[C@H](CO)NC(=O)[C@@H](NC(=O)[C@H](Cc1ccccc1)NC(=O)[C@@H](NC(=O)CNC(=O)[C@H](CCC(N)=O)NC(=O)C(C)(C)NC(=O)[C@@H](N)Cc1c[nH]cn1)[C@@H](C)O)[C@@H](C)O)[C@@H](C)O)C(C)C)C(=O)N[C@@H](CO)C(=O)N[C@@H](CCCCNC(=O)CC[C@H](NC(=O)CC[C@H](NC(=O)COCCOCCNC(=O)COCCOCCNC(=O)CC[C@H](NC(=O)CCCCCCCCCCCCCCCCC(=O)O)C(=O)O)C(=O)O)C(=O)O)C(N)=O
B4: N^ε21-(4S)-4-carboxy-4-[[(4S)-4-carboxy-4-[[2-[2-[2-[[2-[2-[2-[[(4S)-4-carboxy-4-(17-carboxyheptadecanoylamino)butanoyl]amino]ethoxy]ethoxy]acetyl]amino]ethoxy] … (peptide)
peptide: H[Aib]QGTFTSDLSKYLDSRRARK([γGlu-γGlu-AEEA-AEEA-γGlu-C18 diacid])FVQWLLST-NH2
modifications: N-terminus assumed
SMILES: CC(C)C[C@H](NC(=O)[C@H](Cc1ccc(O)cc1)NC(=O)[C@H](CCCCN)NC(=O)[C@H](CO)NC(=O)[C@H](CC(C)C)NC(=O)[C@H](CC(=O)O)NC(=O)[C@H](CO)NC(=O)[C@@H](NC(=O)[C@H](Cc1ccccc1)NC(=O)[C@@H](NC(=O)CNC(=O)[C@H](CCC(N)=O)NC(=O)C(C)(C)NC(=O)[C@@H](N)Cc1c[nH]cn1)[C@@H](C)O)[C@@H](C)O)C(=O)N[C@@H](CC(=O)O)C(=O)N[C@@H](CO)C(=O)N[C@@H](CCCNC(=N)N)C(=O)N[C@@H](CCCNC(=N)N)C(=O)N[C@@H](C)C(=O)N[C@@H](CCCNC(=N)N)C(=O)N[C@@H](CCCCNC(=O)CC[C@H](NC(=O)CC[C@H](NC(=O)COCCOCCNC(=O)COCCOCCNC(=O)CC[C@H](NC(=O)CCCCCCCCCCCCCCCCC(=O)O)C(=O)O)C(=O)O)C(=O)O)C(=O)N[C@@H](Cc1ccccc1)C(=O)N[C@H](C(=O)N[C@@H](CCC(N)=O)C(=O)N[C@@H](Cc1c[nH]c2ccccc12)C(=O)N[C@@H](CC(C)C)C(=O)N[C@@H](CC(C)C)C(=O)N[C@@H](CO)C(=O)N[C@H](C(N)=O)[C@@H](C)O)C(C)C
B5: N^ε29-[(4S)-4-carboxy-4-[[(4S)-4-carboxy-4-[[2-[2-[2-[[2-[2-[2-[[(4S)-4-carboxy-4-(17-carboxyheptadecanoylamino)butanoyl]amino]ethoxy]ethoxy]acetyl]amino]ethoxy … (peptide)
peptide: H[Aib]QGTFTSDLSKYLDTRRAKDFVQWLLSK([γGlu-γGlu-AEEA-AEEA-γGlu-C18 diacid])-NH2
modifications: N-terminus assumed
SMILES: CC(C)C[C@H](NC(=O)[C@H](CC(C)C)NC(=O)[C@H](Cc1c[nH]c2ccccc12)NC(=O)[C@H](CCC(N)=O)NC(=O)[C@@H](NC(=O)[C@H](Cc1ccccc1)NC(=O)[C@H](CC(=O)O)NC(=O)[C@H](CCCCN)NC(=O)[C@H](C)NC(=O)[C@H](CCCNC(=N)N)NC(=O)[C@H](CCCNC(=N)N)NC(=O)[C@@H](NC(=O)[C@H](CC(=O)O)NC(=O)[C@H](CC(C)C)NC(=O)[C@H](Cc1ccc(O)cc1)NC(=O)[C@H](CCCCN)NC(=O)[C@H](CO)NC(=O)[C@H](CC(C)C)NC(=O)[C@H](CC(=O)O)NC(=O)[C@H](CO)NC(=O)[C@@H](NC(=O)[C@H](Cc1ccccc1)NC(=O)[C@@H](NC(=O)CNC(=O)[C@H](CCC(N)=O)NC(=O)C(C)(C)NC(=O)[C@@H](N)Cc1c[nH]cn1)[C@@H](C)O)[C@@H](C)O)[C@@H](C)O)C(C)C)C(=O)N[C@@H](CO)C(=O)N[C@@H](CCCCNC(=O)CC[C@H](NC(=O)CC[C@H](NC(=O)COCCOCCNC(=O)COCCOCCNC(=O)CC[C@H](NC(=O)CCCCCCCCCCCCCCCCC(=O)O)C(=O)O)C(=O)O)C(=O)O)C(N)=O
B6: N^ε29-[(4S)-4-carboxy-4-[[(4S)-4-carboxy-4-[[2-[2-[2-[[2-[2-[2-[[(4S)-4-carboxy-4-(17-carboxyheptadecanoylamino)butanoyl]amino]ethoxy]ethoxy]acetyl]amino]ethoxy … (peptide)
peptide: H[Aib]QGTFTSDLSKYLDERRAKDFVQWLLSK([γGlu-γGlu-AEEA-AEEA-γGlu-C18 diacid])-NH2
modifications: N-terminus assumed
SMILES: CC(C)C[C@H](NC(=O)[C@H](CC(C)C)NC(=O)[C@H](Cc1c[nH]c2ccccc12)NC(=O)[C@H](CCC(N)=O)NC(=O)[C@@H](NC(=O)[C@H](Cc1ccccc1)NC(=O)[C@H](CC(=O)O)NC(=O)[C@H](CCCCN)NC(=O)[C@H](C)NC(=O)[C@H](CCCNC(=N)N)NC(=O)[C@H](CCCNC(=N)N)NC(=O)[C@H](CCC(=O)O)NC(=O)[C@H](CC(=O)O)NC(=O)[C@H](CC(C)C)NC(=O)[C@H](Cc1ccc(O)cc1)NC(=O)[C@H](CCCCN)NC(=O)[C@H](CO)NC(=O)[C@H](CC(C)C)NC(=O)[C@H](CC(=O)O)NC(=O)[C@H](CO)NC(=O)[C@@H](NC(=O)[C@H](Cc1ccccc1)NC(=O)[C@@H](NC(=O)CNC(=O)[C@H](CCC(N)=O)NC(=O)C(C)(C)NC(=O)[C@@H](N)Cc1c[nH]cn1)[C@@H](C)O)[C@@H](C)O)C(C)C)C(=O)N[C@@H](CO)C(=O)N[C@@H](CCCCNC(=O)CC[C@H](NC(=O)CC[C@H](NC(=O)COCCOCCNC(=O)COCCOCCNC(=O)CC[C@H](NC(=O)CCCCCCCCCCCCCCCCC(=O)O)C(=O)O)C(=O)O)C(=O)O)C(N)=O
B7: N^ε28-[(4S)-4-carboxy-4-[[(4S)-4-carboxy-4-[[2-[2-[2-[[2-[2-[2-[[(4S)-4-carboxy-4-(17-carboxyheptadecanoylamino)butanoyl]amino]ethoxy]ethoxy]acetyl]amino]ethoxy … (peptide)
peptide: H[Aib]QGTFTSDLSKYLDSRRARDFVQWLLK([γGlu-γGlu-AEEA-AEEA-γGlu-C18 diacid])T-NH2
modifications: N-terminus assumed
SMILES: CC(C)C[C@H](NC(=O)[C@H](Cc1ccc(O)cc1)NC(=O)[C@H](CCCCN)NC(=O)[C@H](CO)NC(=O)[C@H](CC(C)C)NC(=O)[C@H](CC(=O)O)NC(=O)[C@H](CO)NC(=O)[C@@H](NC(=O)[C@H](Cc1ccccc1)NC(=O)[C@@H](NC(=O)CNC(=O)[C@H](CCC(N)=O)NC(=O)C(C)(C)NC(=O)[C@@H](N)Cc1c[nH]cn1)[C@@H](C)O)[C@@H](C)O)C(=O)N[C@@H](CC(=O)O)C(=O)N[C@@H](CO)C(=O)N[C@@H](CCCNC(=N)N)C(=O)N[C@@H](CCCNC(=N)N)C(=O)N[C@@H](C)C(=O)N[C@@H](CCCNC(=N)N)C(=O)N[C@@H](CC(=O)O)C(=O)N[C@@H](Cc1ccccc1)C(=O)N[C@H](C(=O)N[C@@H](CCC(N)=O)C(=O)N[C@@H](Cc1c[nH]c2ccccc12)C(=O)N[C@@H](CC(C)C)C(=O)N[C@@H](CC(C)C)C(=O)N[C@@H](CCCCNC(=O)CC[C@H](NC(=O)CC[C@H](NC(=O)COCCOCCNC(=O)COCCOCCNC(=O)CC[C@H](NC(=O)CCCCCCCCCCCCCCCCC(=O)O)C(=O)O)C(=O)O)C(=O)O)C(=O)N[C@H](C(N)=O)[C@@H](C)O)C(C)C

Target: human GLP-1 receptor (human, UniProt P43220 24-463)
Test: cell-based or functional assay

Row | Binder | EC50 GLP-1R, CRE luciferase reporter gene assay in BHK cells
1 | B1 | 0.028 nM
2 | B2 | 0.006 nM
3 | B3 | 0.02 nM
4 | B4 | 0.044 nM
5 | B5 | 0.015 nM
6 | B6 | 0.006 nM
7 | B7 | 0.004 nM

Target: human glucagon receptor (human, UniProt P47871 26-477)
Test: cell-based or functional assay

Chain of human glucagon receptor (P47871 26-477): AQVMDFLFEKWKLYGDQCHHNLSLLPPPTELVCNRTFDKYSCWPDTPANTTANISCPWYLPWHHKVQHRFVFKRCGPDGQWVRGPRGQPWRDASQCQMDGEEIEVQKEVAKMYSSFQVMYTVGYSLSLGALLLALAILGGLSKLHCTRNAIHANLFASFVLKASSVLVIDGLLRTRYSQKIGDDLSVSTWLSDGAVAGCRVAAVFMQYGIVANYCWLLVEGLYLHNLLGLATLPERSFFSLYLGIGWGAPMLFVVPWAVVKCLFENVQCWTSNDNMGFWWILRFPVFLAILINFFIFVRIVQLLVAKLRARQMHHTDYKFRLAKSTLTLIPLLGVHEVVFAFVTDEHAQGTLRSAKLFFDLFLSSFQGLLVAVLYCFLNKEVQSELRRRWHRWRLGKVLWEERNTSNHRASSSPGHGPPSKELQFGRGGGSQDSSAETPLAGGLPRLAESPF

Row | Binder | EC50 GlucR, CRE luciferase reporter gene assay in BHK cells
8 | B1 | 0.599 nM
9 | B2 | 0.06 nM
10 | B3 | 0.19 nM
11 | B4 | 0.097 nM
12 | B5 | 0.672 nM
13 | B6 | 1.43 nM
14 | B7 | 0.016 nM
